Results from PMC1635251.

The binders below were run against T1, HIV-1 reverse transcriptase p66/p51 (HIV-1, UniProt P03366;P03366 600-1159;600-1039) (assay: filter binding).
In the case of TCGTGT (XNA, fully 2'-OMe) [Hex-S3D-2'OMe], the binding signal is reported as 2 ± 0.1 relative binding (unit not printed). In the case of TCGTGT (XNA, LNA at position 1) [Hex-S3D-LNA], the binding signal is reported as 4.3 ± 0.4 relative binding (unit not printed). For CGACCG (XNA, phosphorothioate) [Hex-S1D-PS], the binding signal was 18.3 ± 6 relative binding (unit not printed). In the case of TCGTGT (XNA, phosphorothioate) [Hex-S3D-PS], the binding signal is reported as 52.8 ± 9.8 relative binding (unit not printed). In the case of CGACCG (ssDNA) [Hex-S1D], the binding signal is reported as 5.8 ± 0.6 relative binding (unit not printed). In the case of TCGTGT (ssDNA) [Hex-S3D], the binding signal is reported as 8.1 ± 1 relative binding (unit not printed). UCGUGU (XNA, 4-thio-U at position 4) [4-thioU-Hex-S3R] was tested, and the binding signal was 9.8 ± 0.5 relative binding (unit not printed). With CGACCG (XNA, fully 2'-OMe) [Hex-S1D-2'OMe] the binding signal was 0.5 ± 0.1 relative binding (unit not printed).

What follows are binders tested against HIV-2 reverse transcriptase (HIV-2, UniProt P04584;P04584 613-1171;613-1051) (assay: filter binding).
Sequence of HIV-2 reverse transcriptase (P04584 613-1171, chain 1 of 2): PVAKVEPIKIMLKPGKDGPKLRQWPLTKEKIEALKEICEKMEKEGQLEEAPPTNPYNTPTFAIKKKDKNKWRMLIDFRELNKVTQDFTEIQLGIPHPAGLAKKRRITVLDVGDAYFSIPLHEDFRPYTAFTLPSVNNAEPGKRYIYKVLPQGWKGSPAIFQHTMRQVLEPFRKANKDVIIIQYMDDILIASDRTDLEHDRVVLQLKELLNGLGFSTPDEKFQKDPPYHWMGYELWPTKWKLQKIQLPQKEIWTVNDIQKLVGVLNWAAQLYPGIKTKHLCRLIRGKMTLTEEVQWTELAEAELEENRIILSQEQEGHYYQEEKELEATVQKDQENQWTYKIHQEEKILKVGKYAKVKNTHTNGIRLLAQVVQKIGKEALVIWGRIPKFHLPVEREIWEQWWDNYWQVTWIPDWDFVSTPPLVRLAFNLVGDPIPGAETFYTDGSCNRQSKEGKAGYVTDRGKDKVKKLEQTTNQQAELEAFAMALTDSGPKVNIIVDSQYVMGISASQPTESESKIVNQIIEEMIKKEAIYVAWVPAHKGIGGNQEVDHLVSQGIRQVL
Sequence of HIV-2 reverse transcriptase (P04584 613-1051, chain 2 of 2): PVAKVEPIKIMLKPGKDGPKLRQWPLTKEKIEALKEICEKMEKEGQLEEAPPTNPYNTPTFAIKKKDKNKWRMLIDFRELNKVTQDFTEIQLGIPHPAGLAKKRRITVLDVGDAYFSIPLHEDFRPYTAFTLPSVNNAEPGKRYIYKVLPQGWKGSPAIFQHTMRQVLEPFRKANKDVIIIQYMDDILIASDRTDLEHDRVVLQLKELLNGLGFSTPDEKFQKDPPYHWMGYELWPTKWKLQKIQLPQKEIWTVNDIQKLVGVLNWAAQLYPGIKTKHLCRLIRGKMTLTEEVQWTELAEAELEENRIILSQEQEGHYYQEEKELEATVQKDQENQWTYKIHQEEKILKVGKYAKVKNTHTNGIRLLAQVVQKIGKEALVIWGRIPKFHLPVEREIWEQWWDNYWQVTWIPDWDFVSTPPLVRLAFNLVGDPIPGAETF
For CGACCG (XNA, phosphorothioate) [Hex-S1D-PS], the binding signal was 6.6 ± 1.7 relative binding (unit not printed). In the case of TCGTGT (XNA, phosphorothioate) [Hex-S3D-PS], the binding signal is reported as 24.9 ± 3.6 relative binding (unit not printed).

Target: T1, HIV-1 reverse transcriptase p66/p51
Assay: filter binding
Remark: another data set of the same source
Binder UCGUGU (ssRNA) [Hex-S3R] has a Kd of 5.3 ± 0.5 µM.

Target: T1, HIV-1 reverse transcriptase p66/p51
Assay: filter binding
Remark: another data set of the same source
CGUGU (ssRNA) [Hex-S3R pentamer, 5'-shortened]: no binding. UCGUG (ssRNA) [Hex-S3R pentamer, 3'-shortened]: no binding.
